Assays:
[1] = tested on: prostate cancer patients' sera; test: Modified SEREX immunoscreening of T21 clone against prostate cancer patients' sera; assay type: binding, human; parameters: key to Sera reactivity: +: sera reactivity observed; −: no sera reactivity observed
Source text: (§1) The SEREX approach allows an unbiased search for an antibody response and the direct molecular definition of immunogenic tumour proteins based on their reactivity with allogeneic patient sera. In this approach, a prokaryotically expressed cDNA library constructed from normal human testes was immunoscreened with absorbed and diluted patients' sera for the detection of tumour antigens that have elicited a high-titer immunoglobulin (Ig) G humoral response. Such a humoral response implies T-cell recognition of the detected antigens by helper T cells. […] The SEREX approach can then be modified and used to determine the reactivity of identified antigens with panels of human sera including prostate cancer patient sera and normal donor sera.
(§2) The reactivity of promising positive clones against patient and normal donor serum was determined by immunoscreening the clones against and allogeneic panel of 10 prostate cancer patients' sera and 10 healthy donor patients' sera. The methodology used was the same as the SEREX methodology (described above) with the following modifications: The positive clone (T21) and a negative clone (blue phage) were plated out on a small LB agar plate at a ratio of 1:2 to give a titre of approximately 600 pfu/plate. The steps for detection of false positives, subcloning and retesting were not necessary. Following expression overnight, plaque expression and transferral of the plaques to nitrocellulose membranes, the nitrocellulose membranes were incubated with the individual serum and colour developed as described previously. The results would then be recorded simply as being positive (plaques visible) or negative (no plaques visible).
(§3) Immune recognition of identified gene products in prostate cancer patients. To assess the frequency of antibody responses against T21 in sera from normal individuals and prostate cancer patients, 10 prostate cancer patient sera and 10 normal adult sera were screened using a modified immunoscreening procedure.

normal individual sera = test: Modified SEREX immunoscreening of T21 clone against normal individual sera; assay type: binding, human; parameters: key to Sera reactivity: +: sera reactivity observed; −: no sera reactivity observed
Source text: as §1, §2, §3

B1: T21: SEREX-identified cancer-testis antigen clone; cDNA encodes a putative 535 amino acid protein (SEQ. ID. 3) (protein, listed as Homo sapiens)
chain: MSEAQSKNEIIAQEFLIKEAECRNADIELEHHRSQAEQNEFLSRELIEKERDLERSRTVIAKFQNKLKELVEENKQLEEGMKEILQAIKEMQKDPDVKGGETSLIIPSLERLVNAIESKNAEGIFDASLHLKAQVDQLTGRNEELRQELRESRKEAINYSQQLAKANLKIDHLEKETSLLRQSEGSNVVFKGIDLPDGIAPSSASIINSQNEYLIHLLQELENKEKKLKNLEDSLEDYNRKFAVIRHQQSLLYKEYLSEKETWKTESKTIKEEKRKLEDQVQQDAIKVKEYNNLLNALQMDSDEMKKILAENSRKITVLQVNEKSLIRQYTTLVELERQLRKENEKQKNELLSMEAEVCEKIGCLQRFKEMAIFKIAALQKVVDNSVSLSELELANKQYNELTAKYRDILQKDNMLVQRTSNLEHLECENISLKEQVESINKELEITKEKLHTIEQAWEQETKLGNESSMDKAKKSITNSDIVSISKKITMLEMKELNERQRAEHCQKMYEHLRTSLKQMEERNFELETKFAEV
[1]; 10 prostate cancer patient sera
  Antibody response against T21 in sera (in words): reacted exclusively with allogeneic sera obtained from prostate cancer patients
[1]; panel of 10 prostate cancer patients sera
  Sera reactivity, reactive sera / sera tested: 4/10
[1]; prostate cancer patient serum 27
  Sera reactivity: +
[1]; prostate cancer patient serum 29
  Sera reactivity: −
[1]; prostate cancer patient serum 32
  Sera reactivity: −
[1]; prostate cancer patient serum 33
  Sera reactivity: −
[1]; prostate cancer patient serum 34
  Sera reactivity: +
[1]; prostate cancer patient serum 36
  Sera reactivity: −
[1]; prostate cancer patient serum 37
  Sera reactivity: −
[1]; prostate cancer patient serum 38
  Sera reactivity: +
[1]; prostate cancer patient serum 39
  Sera reactivity: +
[1]; prostate cancer patient serum 48
  Sera reactivity: −
Normal individual sera; 10 normal adult sera
  Antibody response against T21 in sera (in words): not with sera from healthy individuals
Normal individual sera; normal individual serum 1
  Sera reactivity: −
Normal individual sera; normal individual serum 2
  Sera reactivity: −
Normal individual sera; normal individual serum 3
  Sera reactivity: −
Normal individual sera; normal individual serum 5
  Sera reactivity: −
Normal individual sera; normal individual serum 12
  Sera reactivity: −
Normal individual sera; normal individual serum 13
  Sera reactivity: −
Normal individual sera; normal individual serum 14
  Sera reactivity: −
Normal individual sera; normal individual serum 19
  Sera reactivity: −
Normal individual sera; normal individual serum 20
  Sera reactivity: −
Normal individual sera; normal individual serum 21
  Sera reactivity: −
Normal individual sera; panel of 10 normal donor sera
  Sera reactivity, reactive sera / sera tested: 0/10
